# From patent US11034759B2, “Humanized M-CSF specific monoclonal antibodies, kits, and uses thereof” (NOVARTIS VACCINES AND DIAGNOSTICS, INC., priority 2004, dated 2021)
# T1: MCSF (Homo sapiens, UniProt P09603)
# T1 sequence (P09603 33-255 limits assumed): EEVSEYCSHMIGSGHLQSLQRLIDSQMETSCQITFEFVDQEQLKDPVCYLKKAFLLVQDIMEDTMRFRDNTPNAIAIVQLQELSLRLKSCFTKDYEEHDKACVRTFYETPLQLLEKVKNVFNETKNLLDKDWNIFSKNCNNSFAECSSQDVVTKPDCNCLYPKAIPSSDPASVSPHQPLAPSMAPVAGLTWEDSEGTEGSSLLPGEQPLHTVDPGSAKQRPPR
# B1: MC1: MCSF-specific murine antibody MC1 (SEQ ID NOs: 12 and 13), hybridoma ATCC PTA-6263 (antibody, listed as Mus musculus)
# heavy: EVKLVESGGGLVQPGGSLKLSCATSGFTFSDYYMYWVRQTPEKRLEWVAYISNGGGSTYYPDTVKGRFTISRDNAKNTLYLQMSRLKSEDTAMYYCARQGSYGYPFAYWGQGTLVTVSAAKTTAPSVYPLAPVCGDTTGSSVTLGCLVKGYFPEPVTLTWNSGSLSSGVHTFPAVLQSDLYTLSSSVTVTSSTWPSQSITCNVAHPASSTKVDKKIEPRGPTIKPCPPCKCPAPNLLGGPSVFIFPPKIKDVLMISLSPIVTCVVVDVSEDDPDVQISWFVNNVEVHTAQTQTHREDYNSTLRVVSALPIQHQDWMSGKEFKCKVNNKDLPAPIERTISKPKGSVRAPQVYVLPPPEEEMTKKQVTLTCMVTDFMPEDIYVEWTNNGKTELNYKNTEPVLDSDGSYFMYSKLRVEKKNWVERNSYSCSVVHEGLHNHHTTKSFSRTPGK
# light: AIQMTQTTSSLSASLGDRVTISCSASQGISNYLNWYQQKPDGTVKLLIYYTSSLHSGVPSRFSGSGSGTDYSLTISNLEPEDIATYYCQQYSKLPWTFGGGTKLEIKRADAAPTVSIFPPSSEQLTSGGASVVCFLNNFYPKDINVKWKIDGSERQNGVLNSWTDQDSKDSTYSMSSTLTLTKDEYERHNSYTCEATHKTSTSPIVKSFNRNEC
# B2: 5H4: MCSF-specific murine antibody 5H4 (SEQ ID NOs: 10 and 11) (antibody, listed as Mus musculus)
# heavy: EIQLQQSGPELVKTGTSVKISCKASGYSFTGYFMHWVKQSHGKSLEWIGYISCYNGDTNYNQNFKGKATFTVDTSSSTAYMQFNSLTSEDSAVYYCAREGGNYPAYWGQGTLVTVSAAKTTPPSVYPLAPGSAAQTNSMVTLGCLVKGYFPEPVTVTWNSGSLSSGVHTFPAVLQSDLYTLSSSVTVPSSTWPSETVTCNVAHPASSTKVDKKIVPRDCGCKPCICTVPEVSSVFIFPPKPKDVLTITLTPKVTCVVVDISKDDPEVQFSWFVDDVEVHTAQTQPREEQFNSTFRSVSELPIMHQDWLNGKEFKCRVNSAAFPAPIEKTISKTKGRPKAPQVYTIPPPKEQMAKDKVSLTCMITDFFPEDITVEWQWNGQPAENYKNTQPIMDTDGSYFVYSKLNVQKSNWEAGNTFTCSVLHEGLHNHHTEKSLSHSPGK
# light: DIVMTQSHKFMSTSVGDRVTITCKASQNVGTAVTWYQQKPGQSPKLLIYWTSTRHAGVPDRFTGSGSGTDFTLTISDVQSEDLADYFCQQYSSYPLTFGAGTKLELKRADAAPTVSIFPPSSEQLTSGGASVVCFLNNFYPKDINVKWKIDGSERQNGVLNSWTDQDSKDSTYSMSSTLTLTKDEYERHNSYTCEATHKTSTSPIVKSFNRNEC
# B3: heRX1-10.G4: Human Engineered RX1 construct 10 with IgG4 constant region; named only in Table 12 (antibody)
# heavy: QVQLQESGPGLVKPSQTLSLTCTVSDYSITSDYAWNWIRQFPGKGLEWMGYISYSGSTSYNPSLKSRITISRDTSKNQFSLQLNSVTAADTAVYYCASFDYAHAMDYWGQGTTVTVSS
# light: DIVLTQSPAFLSVTPGEKVTFTCQASQSIGTSIHWYQQKTDQAPKLLIKYASESISGIPSRFSGSGSGTDFTLTISSVEAEDAADYYCQQINSWPTTFGGGTKLEIKRT
# modifications: left off: a dimerising Fc or GST
# Assays:
# MCSF [1] = biological target: T1, MCSF; assay: M-NFS-60 proliferation assay, neutralizing activity (Example 1); assay type: cell-based; settings: 10 ng/ml M-CSF, 72 hours
# Method: Proliferation of M-NFS-60 requires active M-CSF in a dose-dependent fashion. In the assay, M-NFS-60 cells were washed and plated in RPMI 1640 medium with 10% FBS and 3000 U/ml of M-CSF and 1% Pen/Strep. Recombinant human M-CSF (at 10 ng/ml final concentration), human or murine-specific, was incubated with various concentrations of antibodies for 1 hour at 37° C. in 5% CO2 in an incubator. Following the incubation, the mixture was added to the M-NFS-60 culture in 96 well microtiter plates. Cells were incubated at 37° C. under 5% CO2 for 72 hours before cell numbers were quantified by CellTiter Glo assay (Promega). The aforementioned assay was repeated for antibodies MC3 and MC1.
# MCSF [2] = biological target: T1, MCSF; assay: Biacore analysis, antibody captured on anti-mouse Fc chip, MCSF flowed over; assay type: binding; settings: Table 8, 25° C., 1:1 interaction model
# Method: Binding properties of the aforementioned antibodies were analyzed using Biacore analyses. […] The aforementioned antibodies were then captured on the anti-mouse Fc/CM5 biosensor chip at 1.5 μg/ml for 3 min at 2 μl/min. MCSF was flowed over the modified biosensor surface at varying concentrations (Rmax ˜15). Test antibodies and antigen were diluted in 0.01 M HEPES pH 7.4, 0.15 M NaCL, 3 mM EDTA, 0.005% Surfactant P20 (HBS-EP). All experiments were performed at 25° C. Kinetic and affinity constants were determined using Biaevaluation software (Biacore) with a 1:1 interaction model/global fit.
# MCSF [3] = biological target: T1, MCSF; assay: Biacore analysis, M-CSF immobilized, intact Mab or Fab flowed over (Example 11); assay type: binding; settings: Table 9, 25° C., 1:1 interaction model
# Method: Specifically, M-CSF was immobilized onto CMS biosensor chip via amine coupling. 0.05 μg/ml M-CSF in 10 mM Na Acetate pH 4.0 was injected at 1 μl/min for 5 minutes to achieve RL=6-12 RU. Test antibody (or Fab fragment) were flowed over the modified biosensor surface at varying concentrations. Test antibodies were diluted in 0.01 M HEPES pH 7.4, 0.15 M NaCL, 3 mM EDTA, 0.005% Surfactant P20 (HBS-EP) and all experiments were done at 25° C. Kinetic and affinity constants were determined using Biaevaluation software (Biacore) with a 1:1 interaction model/global fit.
# MCSF [4] = biological target: T1, MCSF; assay: Recognition of M-CSF under reducing and non-reducing conditions; assay type: binding; settings: 0.1 μg M-CSF
# Method: Accordingly, the anti-M-CSF antibodies were tested against 0.1 μg M-CSF under reducing as well as non-reducing conditions.
# MCSF [5] = biological target: T1, MCSF; assay: M-NFS-60 proliferation assay, neutralizing activity (Example 14); assay type: cell-based; settings: Table 12; relative IC50, M-NFS-60 proliferation, 10 ng/ml M-CSF, 72 hours
# Source text: To test the neutralizing activity of M-CSF antibodies, a proliferation assay of M-NFS-60 cell line was used (American Type Culture Collection, Accession No. CRL-1838, available from ATCC in Rockville, Md., USA, derived from a myologenous leukemia induced with the Cas-Br.MuLV wild mouse ecotropic retrovirus. The cell line responds to both interleukin 3 and M-CSF and contains a truncated c-myb proto-oncogene caused by the integration of a retrovirus). Proliferation of M-NFS-60 requires active M-CSF in a dose-dependent fashion. In the assay, M-NFS-60 cells were washed and plated in RPIM1640 medium with 10% FBS and 1% Pen/Strep. […] Cells were incubated at 37° C. under 5% CO2 for 72 hours before cell numbers were quantified by CellTiter Glo assay (Promega). […] The IC50 of each antibody was analyzed by curve fit.
# The assay was repeated using human MCSF in serum, MDA231 conditioned medium (which contains M-CSF), cynomologous monkey MCSF in serum, and cynomologous monkey recombinant MCSF. The results are presented in FIGS. 25 (recombinant MCSF), 26 (human MCSF in serum) and 27 (MDA231 conditioned medium) as the fluorescent reading from CellTiter Glo assay, which is linear with cell number. […]
molecule,measurement,setting,value
B1,Neutralization of M-CSF activity (M-NFS-60 proliferation),MCSF [1],effective inhibitors of M-CSF activity
B2,Ka,MCSF [2],594000 M⁻¹ s⁻¹
same,Kd,MCSF [2],0.00177 s⁻¹
same,Ka,MCSF [3],127000 M⁻¹ s⁻¹
same,Kd,MCSF [3],0.00126 s⁻¹
same,Form of M-CSF recognized,MCSF [4],Only the non-reduced form of M-CSF was recognized
B3,IC50 Fold Loss,MCSF [5],No loss
